Values quoted from earlier work, collected in paper PMC6611644.
Several values for one entry are separate records, joined by “and”; a condition that tells them apart may be missing. Equal entries are not always repeated.

Target: GPIbα (Homo sapiens) (UniProt P07359)
Test: SPR

Chain of UniProt P07359 (P07359 17-306): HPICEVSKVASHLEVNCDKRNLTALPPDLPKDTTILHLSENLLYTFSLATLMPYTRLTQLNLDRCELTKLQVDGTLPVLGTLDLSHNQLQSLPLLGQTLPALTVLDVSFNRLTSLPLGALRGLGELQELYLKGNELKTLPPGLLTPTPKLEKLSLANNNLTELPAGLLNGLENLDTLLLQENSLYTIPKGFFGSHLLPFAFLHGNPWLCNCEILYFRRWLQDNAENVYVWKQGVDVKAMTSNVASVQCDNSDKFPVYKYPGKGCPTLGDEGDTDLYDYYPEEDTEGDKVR

Substance | Kd
Hsa BR (from UniProt A8AWU7) | 0.00505 µM and 0.0305 µM
GspB BR (from UniProt Q939N5) | 0.0238 µM
